This note sets out measurements from article PMC4692422.

B1: Flag-tagged WT STAT5 (mouse STAT5a) [mouse] / DUSP4-PD (phosphatase-dead mutant DUSP4, [mouse] (parent)
chain 1: MAGWIQAQQLQGDALRQMQVLYGQHFPIEVRHYLAQWIESQPWDAIDLDNPQDRGQATQLLEGLVQELQKKAEHQVGEDGFLLKIKLGHYATQLQNTYDRCPMELVRCIRHILYNEQRLVREANNCSSPAGVLVDAMSQKHLQINQRFEELRLITQDTENELKKLQQTQEYFIIQYQESLRIQAQFAQLGQLNPQERMSRETALQQKQVSLETWLQREAQTLQQYRVELAEKHQKTLQLLRKQQTIILDDELIQWKRRQQLAGNGGPPEGSLDVLQSWCEKLAEIIWQNRQQIRRAEHLCQQLPIPGPVEEMLAEVNATITDIISALVTSTFIIEKQPPQVLKTQTKFAATVRLLVGGKLNVHMNPPQVKATIISEQQAKSLLKNENTRNECSGEILNNCCVMEYHQATGTLSAHFRNMSLKRIKRADRRGAESVTEEKFTVLFESQFSVGSNELVFQVKTLSLPVVVIVHGSQDHNATATVLWDNAFAEPGRVPFAVPDKVLWPQLCEALNMKFKAEVQSNRGLTKENLVFLAQKLFNISSNHLEDYNSMSVSWSQFNRENLPGWNYTFWQWFDGVMEVLKKHHKPHWNDGAILGFVNKQQAHDLLINKPDGTFLLRFSDSEIGGITIAWKFDSPDRNLWNLKPFTTRDFSIRSLADRLGDLNYLIYVFPDRPKDEVFAKYYTPVLAKAVDGYVKPQIKQVVPEFVNASTDAGASATYMDQAPSPVVCPQPHYNMYPPNPDPVLDQDGEFDLDESMDVARHVEELLRRPMDSLDARLSPPAGLFTSARSSLS
chain 2: MVTMEELREMDCSVLKRLMNRDENGGGGSAGGNGSGSHGALGLLSGGKCLLLDCRPFLAHSAGYIRGSVNVRCNTIVRRRAKGSVSLEQILPAEEEVRARLRSGLYSAVIVYDERSPRAESLREDSTVSLVVQALRRNAERTDICLLKGGYERFSSEYPEFCSKTKALAAIPPPVPPSTNESLDLGCSSCGTPLHDQGGPVEILPFLYLGSAYHAARRDMLDALGITALLNVSSDCPNHFEGHYQYKCIPVEDNHKADISSWFMEAIEYIDAVKDCRGRVLVHSQAGISRSATICLAYLMMKKRVRLEEAFEFVKQRRSIISPNFSFMGQLLQFESQVLTTSCAAEAASPSGPLRERGKATPTPTSQFVFSFPVSVGVHAAPSNLPYLHSPITTSPSC

This assay covers variants of B1. Briefly: co-IP (anti-Flag IP, IB DUSP4) with band intensity quantification. As to conditions: HEK-293T cells co-transfected for 24 hr, parent: 3.76e+04.
On to chain 1 Y694D, for which the response (band intensity (arbitrary units)) stood at 48300. Consider chain 1 Y694F, for which the response (band intensity (arbitrary units)) turned out to be 43700. Under chain 1 Y694E stands 44800.
